From patent publication US11597951B2 (Lygos, Inc., priority 2018, dated 2023) come the findings set out here.

One assay relates to E. coli strain K12. The experiment in a line: In vivo production of malonate in E. coli using S. cerevisiae EHD3 malonyl-CoA hydrolases. The format is cell-based. The conditions noted are these: for Malonate Concentration: E. coli K12, M9 minimal medium, 30° C., 48 hours, mean±std dev, n=3; for malonate production relative to wild-type EHD3: E. coli K12, 48 hours. As for the experimental part:
This example describes the host cells and culture conditions resulting in the in vivo production of malonate using a heterologous EHD3 malonyl-CoA hydrolase in an E. coli host cell. E. coli strain K12 was transformed with vectors containing wild-type EHD3, EHD3 (E124A), […], EHD3 (E124S), EHD3 (E124A, E308V) or an empty vector negative control. Transformants were streaked on LB agar plates (Cm^50, 2% glucose). Following overnight growth at 37° C., individual colonies were inoculated into 3 ml LB (Cm^50, 2% glucose) in a 48-well plate. Cultures were incubated on a plate shaker at 37° C. for 6 hours, at which point each culture was inoculated 1% v/v into M9 minimal medium supplemented with Cm^50 and a mixed carbon source (0.5% glycerol, 0.05% glucose, 0.2% lactose) in a 48-well plate. Cultures were incubated on a plate shaker at 30° C., and a 500 μL sample of the fermentation broth was removed for analysis after 48 hours incubation.
Samples were centrifuged (×6000 g, 1 min) and the supernatant analyzed for malonate quantification. Chemical standards were prepared in […] of water. The separation of malonate was conducted on a Shimadzu Prominence XR UPLC connected to a refractive index detector and UV detector monitoring 210 nm. Product separation was performed on a Bio-Rad Fermentation Monitoring column. The UPLC was programmed to run isocratically using 5 mM H2504 as the eluant with a flow rate of 600 μL per minute. 10 μL were injected per sample, and the sample plate temperature was held at 4° C. Malonate standards began eluting at […]. […] Malonate concentrations (mg/1) were calculated by comparison to a standard curve prepared from authentic malonate.

For the next assay, the system named is S. cerevisiae. The experiment in a line: Production of malonate in yeast expressing engineered FabD malonyl CoA:ACP transacylase. The format is cell-based. From the text: In this example, FabD from E. coli, a malonyl CoA:ACP transacylase (EC 2.3.1.39) having one or more of the following amino acid changes at the indicated positions: C92, H201, N201, D117, E117, N117, Y117, G117, H117, Q11, D11, Ell, N11, Y11, G11, H11, A93, V93, I93, F93, S93, G93 was employed as a malonyl-CoA hydrolase. The nucleic acid encoding E. coli FabD was PCR amplified from E. coli strain K12 using primer F1 (5′-[…]-3′) (SEQ ID NO: 43) and F2 (5′-[…]-3′) (SEQ ID NO: 44). The amplified gene was then mutated using standard methods and inserted into a shuttle expression plasmid under the control of the TEF1 promoter and upstream of the CYC1 terminator. This vector contains an ampicillin resistance cassette, a PMB1 origin of replication, a CEN/ARS origin of replication, and a URA3 selection marker. The individual mutational combinations assayed are listed with the results below.
Individual colonies were inoculated into 1 ml of yeast fermentation media comprising 5 g/L ammonium sulfate, 1 g/L monopotassium phosphate, 0.5 g/L magnesium sulfate, 0.1 g/L sodium chloride, 0.1 g/L calcium chloride, 2 mg/L inositol, 0.5 mg/L boric acid, 0.4 mg/L calcium pentothenate, 0.4 mg/L niacin, 0.4 mg/L pyridoxine hydrochloride, 0.4 mg/L thiamine HCl, 0.4 mg/L zinc sulfate, 0.4 mg/L manganese sulfate, 0.2 mg/L p-aminobenzoic acid, 0.2 mg/L riboflavin, 0.2 mg/L sodium molybdate, 0.2 mg/L ferric chloride, 0.1 mg/L potassium iodide, 40 μg/L copper sulfate, 2 μg/L folic acid, 2 μg/L biotin, 10 mg/L adenine, 50 mg/L L-arginine HCl, 80 mg/L L-aspartic acid, 20 mg/L L-histidine HCl, 50 mg/L L-isoleucine, 100 mg/L L-leucine, 50 mg/L L-lysine HCl, 20 mg/L methionine, 50 mg/L L-phenylalanine, 100 mg/L L-threonine, 50 mg/L L-tryptophan, 50 mg/L L-tyrosine, and 140 mg/L L-valine (the base media) containing 2% glucose as a carbon source. The cultures were incubated on a shaker at 30° C. for 24 h, and 20 μl of these cultures were used to inoculate production cultures of 2 ml of the same media. The production cultures were covered with a breathable membrane, incubated with shaking at 30° C. and sampled for HPLC analysis of product accumulation after 96 h and 168 h of growth.

Take “Wild-type EHD3: wild type S. cerevisiae EHD3 acyl-CoA hydrolase, SEQ ID NO:1”: the “Malonate Concentration” value in the assay on E. coli strain K12 is 6.0 ± 0.2 mg/L.

B1: EHD3 (E124V): S. cerevisiae EHD3 with point mutation E124V, malonyl-CoA hydrolase (protein, UniProt P28817 1-500, looked up, variant E124V)
Small ribosomal subunit …: MLRNTLKCAQLSSKYGFKTTTRTFMTTQPQLNVTDAPPVLFTVQDTARVITLNRPKKLNALNAEMSESMFKTLNEYAKSDTTNLVILKSSNRPRSFCAGGDVATVAIFNFNKEFAKSIKFFTDVYSLNFQIATYLKPIVTFMDGITMGGGVGLSIHTPFRIATENTKWAMPEMDIGFFPDVGSTFALPRIVTLANSNSQMALYLCLTGEVVTGADAYMLGLASHYVSSENLDALQKRLGEISPPFNNDPQSAYFFGMVNESIDEFVSPLPKDYVFKYSNEKLNVIEACFNLSKNGTIEDIMNNLRQYEGSAEGKAFAQEIKTKLLTKSPSSLQIALRLVQENSRDHIESAIKRDLYTAANMCMNQDSLVEFSEATKHKLIDKQRVPYPWTKKEQLFVSQLTSITSPKPSLPMSLLRNTSNVTWTQYPYHSKYQLPTEQEIAAYIEKRTNDDTGAKVTEREVLNHFANVIPSRRGKLGIQSLCKIVCERKCEEVNDGLRWK
As for B1, in the assay on E. coli strain K12, the “malonate production relative to wild-type EHD3” value is “decreased production of malonate” and the “Malonate Concentration” value turned out to be 0.28 ± 0.03 mg/L.

B2: EHD3 (E124A/E308V): S. cerevisiae EHD3 with mutations E124A and E308V, malonyl-CoA hydrolase (protein, UniProt P28817 1-500, looked up, variant E124A E308V)
Small ribosomal subunit …: MLRNTLKCAQLSSKYGFKTTTRTFMTTQPQLNVTDAPPVLFTVQDTARVITLNRPKKLNALNAEMSESMFKTLNEYAKSDTTNLVILKSSNRPRSFCAGGDVATVAIFNFNKEFAKSIKFFTDAYSLNFQIATYLKPIVTFMDGITMGGGVGLSIHTPFRIATENTKWAMPEMDIGFFPDVGSTFALPRIVTLANSNSQMALYLCLTGEVVTGADAYMLGLASHYVSSENLDALQKRLGEISPPFNNDPQSAYFFGMVNESIDEFVSPLPKDYVFKYSNEKLNVIEACFNLSKNGTIEDIMNNLRQYVGSAEGKAFAQEIKTKLLTKSPSSLQIALRLVQENSRDHIESAIKRDLYTAANMCMNQDSLVEFSEATKHKLIDKQRVPYPWTKKEQLFVSQLTSITSPKPSLPMSLLRNTSNVTWTQYPYHSKYQLPTEQEIAAYIEKRTNDDTGAKVTEREVLNHFANVIPSRRGKLGIQSLCKIVCERKCEEVNDGLRWK
As to B2, in the assay on E. coli strain K12, the “Malonate Concentration” value was 8.35 ± 2.5 mg/L.

B3: EHD3 (E124A): S. cerevisiae EHD3 with point mutation E124A, malonyl-CoA hydrolase (protein, UniProt P28817 1-500, looked up, variant E124A)
Small ribosomal subunit …: MLRNTLKCAQLSSKYGFKTTTRTFMTTQPQLNVTDAPPVLFTVQDTARVITLNRPKKLNALNAEMSESMFKTLNEYAKSDTTNLVILKSSNRPRSFCAGGDVATVAIFNFNKEFAKSIKFFTDAYSLNFQIATYLKPIVTFMDGITMGGGVGLSIHTPFRIATENTKWAMPEMDIGFFPDVGSTFALPRIVTLANSNSQMALYLCLTGEVVTGADAYMLGLASHYVSSENLDALQKRLGEISPPFNNDPQSAYFFGMVNESIDEFVSPLPKDYVFKYSNEKLNVIEACFNLSKNGTIEDIMNNLRQYEGSAEGKAFAQEIKTKLLTKSPSSLQIALRLVQENSRDHIESAIKRDLYTAANMCMNQDSLVEFSEATKHKLIDKQRVPYPWTKKEQLFVSQLTSITSPKPSLPMSLLRNTSNVTWTQYPYHSKYQLPTEQEIAAYIEKRTNDDTGAKVTEREVLNHFANVIPSRRGKLGIQSLCKIVCERKCEEVNDGLRWK
Regarding B3, in the assay on E. coli strain K12, the “malonate production relative to wild-type EHD3” value was “only a minor increase” and the “Malonate Concentration” value is 7.6 ± 0.7 mg/L.

B4: FabD S92C/L93V/R117H: engineered E. coli FabD malonyl CoA:ACP transacylase with S92C/L93V/R117H (protein, UniProt P0AAI9 2-309, looked up, variant S92C L93V R117H)
Malonyl CoA-acyl carrier …: TQFAFVFPGQGSQTVGMLADMAASYPIVEETFAEASAALGYDLWALTQQGPAEELNKTWQTQPALLTASVALYRVWQQQGGKAPAMMAGHCVGEYSALVCAGVIDFADAVRLVEMHGKFMQEAVPEGTGAMAAIIGLDDASIAKACEEAAEGQVVSPVNFNSPGQVVIAGHKEAVERAGAACKAAGAKRALPLPVSVPSHCALMKPAADKLAVELAKITFNAPTVPVVNNVDVKCETNGDAIRDALVRQLYNPVQWTKSVEYMAAQGVEHLYEVGPGKVLTGLTKRIVDTLTASALNEPSAMAAALEL
In the case of B4, the figures for the Malonate accumulation in the assay with S. cerevisiae (96 h of fermentation) and with S. cerevisiae (168 h of fermentation) were 1.01 mM and 2.49 mM, respectively.

B5: FabD L93I/R117Y: engineered E. coli FabD malonyl CoA:ACP transacylase with L93I/R117Y (protein, UniProt P0AAI9 2-309, looked up, variant L93I R117Y)
Malonyl CoA-acyl carrier …: TQFAFVFPGQGSQTVGMLADMAASYPIVEETFAEASAALGYDLWALTQQGPAEELNKTWQTQPALLTASVALYRVWQQQGGKAPAMMAGHSIGEYSALVCAGVIDFADAVRLVEMYGKFMQEAVPEGTGAMAAIIGLDDASIAKACEEAAEGQVVSPVNFNSPGQVVIAGHKEAVERAGAACKAAGAKRALPLPVSVPSHCALMKPAADKLAVELAKITFNAPTVPVVNNVDVKCETNGDAIRDALVRQLYNPVQWTKSVEYMAAQGVEHLYEVGPGKVLTGLTKRIVDTLTASALNEPSAMAAALEL
In the case of B5, the Malonate accumulation was determined as 1.64 mM in the assay on S. cerevisiae (96 h of fermentation) and 3.47 mM in the assay on S. cerevisiae (168 h of fermentation).

B6: FabD L93S/R117G: engineered E. coli FabD malonyl CoA:ACP transacylase with L93S/R117G (protein, UniProt P0AAI9 2-309, looked up, variant L93S R117G)
Malonyl CoA-acyl carrier …: TQFAFVFPGQGSQTVGMLADMAASYPIVEETFAEASAALGYDLWALTQQGPAEELNKTWQTQPALLTASVALYRVWQQQGGKAPAMMAGHSSGEYSALVCAGVIDFADAVRLVEMGGKFMQEAVPEGTGAMAAIIGLDDASIAKACEEAAEGQVVSPVNFNSPGQVVIAGHKEAVERAGAACKAAGAKRALPLPVSVPSHCALMKPAADKLAVELAKITFNAPTVPVVNNVDVKCETNGDAIRDALVRQLYNPVQWTKSVEYMAAQGVEHLYEVGPGKVLTGLTKRIVDTLTASALNEPSAMAAALEL
Turning to B6, the Malonate accumulation in the assay on S. cerevisiae (96 h of fermentation) was found to be 1.11 mM; in the assay on S. cerevisiae (168 h of fermentation), 2.89 mM.

B7: FabD L931/R117Y: engineered E. coli FabD malonyl CoA:ACP transacylase variant, printed L931/R117Y (protein, UniProt P0AAI9 2-309, looked up, variant L93I R117Y)
Malonyl CoA-acyl carrier …: TQFAFVFPGQGSQTVGMLADMAASYPIVEETFAEASAALGYDLWALTQQGPAEELNKTWQTQPALLTASVALYRVWQQQGGKAPAMMAGHSIGEYSALVCAGVIDFADAVRLVEMYGKFMQEAVPEGTGAMAAIIGLDDASIAKACEEAAEGQVVSPVNFNSPGQVVIAGHKEAVERAGAACKAAGAKRALPLPVSVPSHCALMKPAADKLAVELAKITFNAPTVPVVNNVDVKCETNGDAIRDALVRQLYNPVQWTKSVEYMAAQGVEHLYEVGPGKVLTGLTKRIVDTLTASALNEPSAMAAALEL
Take B7: the Malonate accumulation in the assay with S. cerevisiae (96 h of fermentation) is recorded as 1.47 mM; in the assay on S. cerevisiae (168 h of fermentation), 2.48 mM.
